The values that follow are results of earlier work, collected in publication PMC10213776.

For the data set, the target named is IL-18 (Homo sapiens) (UniProt Q14116).
IL-18 (Homo sapiens), sequence (Q14116 37-193): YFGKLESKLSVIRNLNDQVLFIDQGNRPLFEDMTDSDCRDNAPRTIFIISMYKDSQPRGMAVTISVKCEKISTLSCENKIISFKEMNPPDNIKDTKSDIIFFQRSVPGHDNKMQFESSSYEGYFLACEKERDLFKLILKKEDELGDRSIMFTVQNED

IL-18BP, sequence (O95998 31-194): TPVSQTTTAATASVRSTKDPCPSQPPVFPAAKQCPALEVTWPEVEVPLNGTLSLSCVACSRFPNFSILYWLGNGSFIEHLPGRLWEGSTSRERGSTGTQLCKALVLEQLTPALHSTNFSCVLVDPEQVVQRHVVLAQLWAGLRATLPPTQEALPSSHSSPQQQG

Broadly, the Kd is the equilibrium constant for the complex coming apart. IL-18BP (from UniProt O95998): the Kd is 0.4 nM.
